According to US10064926B2, “Peptides and combination of peptides for use in immunotherapy against hepatocellular carcinoma (HCC) and other cancers” (Immatics biotechnologies GmbH, priority 2014, dated 2018):

Target: HLA-A*02 (Homo sapiens, UniProt P04439, D140Y/D185E/D98H/E176V/E277Q/G131W/G231S/I119V/I121R/I166T/I218V/N151K/N90K/P208A/P217A/Q86G/Q94H/R138H/R169H)
Assay: UV-ligand exchange / peptide binding to MHC class I (beta2m ELISA)
Conditions: peptide exchange yield
From the text: Candidate peptides for T cell based therapies according to the present invention were further tested for their MHC binding capacity (affinity). The individual peptide-MHC complexes were produced by UV-ligand exchange, where a UV-sensitive peptide is cleaved upon UV-irradiation, and exchanged with the peptide of interest as analyzed. Only peptide candidates that can effectively bind and stabilize the peptide-receptive MHC molecules prevent dissociation of the MHC complexes. To determine the yield of the exchange reaction, an ELISA was performed based on the detection of the light chain (β2m) of stabilized MHC complexes. The assay was performed as generally described in Rodenko et al. (Rodenko B, Toebes M, Hadrup S R, van Esch W J, Molenaar A M, Schumacher T N, Ovaa H. Generation of peptide-MHC class I complexes through UV-mediated ligand exchange. Nat Protoc. 2006; 1(3):1120-32).
96 well MAXISorp plates (NUNC) were coated over night with 2 ug/ml streptavidin in PBS at room temperature, washed 4× and blocked for 1 h at 37° C. in 2% BSA containing blocking buffer. Refolded HLA-A*0201/MLA-001 monomers served as standards, covering the range of 15-500 ng/ml. Peptide-MHC monomers of the UV-exchange reaction were diluted 100 fold in blocking buffer. Samples were incubated for 1 h at 37° C., washed four times, incubated with 2 ug/ml HRP conjugated anti-β2m for 1 h at 37° C., washed again and detected with TMB solution that is stopped with […]. Absorption was measured at 450 nm. Candidate peptides that show a high exchange yield (preferably higher than 50%, most preferred higher than 75%) are generally preferred for a generation and production of antibodies or fragments thereof, and/or T cell receptors or fragments thereof, as they show sufficient avidity to the MHC molecules and prevent dissociation of the MHC complexes.

[1] = Table 10A, UV-ligand exchange, β2m ELISA

Row | Peptide exchange (MHC class I binding score) (Table 10B, HLA-A*02 peptides) | Peptide exchange (MHC class I binding score) [1] | Substance
1 | “+++” (≥50 = +++) | – | 159 (RLFPDGIVTV; listed as Homo sapiens) [compound 159]
2 | “+++” (≥50 = +++) | – | 257 (SLLEKAGPEL; listed as Homo sapiens) [compound 257]
3 | “++++” (≥75% = ++++) | – | 140 (ALTSISAGV; listed as Homo sapiens) [compound 140]
4 | “+++” (≥50 = +++) | – | 169 (SLFEWFHPL; listed as Homo sapiens) [compound 169]
5 | “+++” (≥50 = +++) | – | 185 (ALFPALRPGGFQA; listed as Homo sapiens) [compound 185]
6 | “+++” (≥50 = +++) | – | 269 (YLMEGSYNKV; listed as Homo sapiens) [compound 269]
7 | “+++” (≥50 = +++) | – | 242 (GLFAPVHKV; listed as Homo sapiens) [compound 242]
8 | “++++” (≥75% = ++++) | – | 278 (ALTSVVVTL; listed as Homo sapiens) [compound 278]
9 | “+++” (≥50 = +++) | – | 284 (KLDAFVEGV; listed as Homo sapiens) [compound 284]
10 | “++” (≥20% = ++) | – | 145 (FLIAEYFEHV; listed as Homo sapiens) [compound 145]
11 | “+++” (≥50 = +++) | – | 178 (YIFTTPKSV; listed as Homo sapiens) [compound 178]
12 | “+++” (≥50 = +++) | – | 262 (VLPNFLPYNV; listed as Homo sapiens) [compound 262]
13 | “+++” (≥50 = +++) | – | 252 (RTIEYLEEV; listed as Homo sapiens) [compound 252]
14 | “+++” (≥50 = +++) | – | 129 (SQADVIPAV; listed as Homo sapiens) [compound 129]
15 | “++” (≥20% = ++) | – | 160 (RLLAKIICL; listed as Homo sapiens) [compound 160]
16 | “+++” (≥50 = +++) | +++ (50%-75% = +++) | 220 (SLLEKELESV; listed as Homo sapiens) [compound 220]
17 | “+++” (≥50 = +++) | – | 172 (SLLNFLQHL; listed as Homo sapiens) [compound 172]
18 | “+++” (≥50 = +++) | – | 237 (ALRGEIETV; listed as Homo sapiens) [compound 237]
19 | “++” (≥20% = ++) | – | 222 (LTDITKGV; listed as Homo sapiens) [compound 222]
20 | “++” (≥20% = ++) | – | 146 (FLWTEQAHTV; listed as Homo sapiens) [compound 146]
21 | “++++” (≥75% = ++++) | – | 142 (AVIGGLIYV; listed as Homo sapiens) [compound 142]
22 | “+++” (≥50 = +++) | – | 281 (GLLAGDRLVEV; listed as Homo sapiens) [compound 281]
23 | “++++” (≥75% = ++++) | – | 138 (ALSQVTLLL; listed as Homo sapiens) [compound 138]
24 | “++++” (≥75% = ++++) | – | 265 (WLIEDGKVVTV; listed as Homo sapiens) [compound 265]
25 | “++++” (≥75% = ++++) | – | 249 (LLLGERVAL; listed as Homo sapiens) [compound 249]
26 | “+++” (≥50 = +++) | – | 291 (QLIDYERQL; listed as Homo sapiens) [compound 291]
27 | “+++” (≥50 = +++) | – | 239 (FLLGFIPAKA; listed as Homo sapiens) [compound 239]
28 | “++++” (≥75% = ++++) | – | 294 (RLIDLHTNV; listed as Homo sapiens) [compound 294]
29 | “++++” (≥75% = ++++) | ++++ (>=75% = ++++) | 223 (FLFNTENKLLL; listed as Homo sapiens) [compound 223]
30 | “++++” (≥75% = ++++) | – | 235 (KLFEEIREI; listed as Homo sapiens) [compound 235]

The remaining lines, values behind:

Row | Substance | Peptide exchange (MHC class I binding score) (Table 10B, HLA-A*02 peptides) | Peptide exchange (MHC class I binding score) [1]
31 | 26 (SLLHTIYEV; listed as Homo sapiens) [compound 26] | “+++” (≥50 = +++) | –
32 | 62 (KIAGTNAEV; listed as Homo sapiens) [compound 62] | “++” (≥20% = ++) | –
33 | 98 (SLLSPEHLQYL; listed as Homo sapiens) [compound 98] | “+++” (≥50 = +++) | –
34 | 125 (ALYGRLEVV; listed as Homo sapiens) [compound 125] | “++++” (≥75% = ++++) | –
35 | 19 (FLEETKATV; listed as Homo sapiens) [compound 19] | “+++” (≥50 = +++) | –
36 | 84 (QLTPVLVSV; listed as Homo sapiens) [compound 84] | “+++” (≥50 = +++) | –
37 | 56 (GVLPGLVGV; listed as Homo sapiens) [compound 56] | “+++” (≥50 = +++) | –
38 | 35 (SLQESILAQV; listed as Homo sapiens) [compound 35] | “+++” (≥50 = +++) | –
39 | 121 (YLITGNLEKL; listed as Homo sapiens) [compound 121] | “+++” (≥50 = +++) | –
40 | 109 (TLYALSHAV; listed as Homo sapiens) [compound 109] | “+++” (≥50 = +++) | –
41 | 112 (VLGEVKVGV; listed as Homo sapiens) [compound 112] | “++++” (≥75% = ++++) | –
42 | 76 (LLADIGGDPFAA; listed as Homo sapiens) [compound 76] | “+++” (≥50 = +++) | –
43 | 90 (RLLDVLAPLV; listed as Homo sapiens) [compound 90] | “+++” (≥50 = +++) | –
44 | 13 (GLIDTETAMKAV; listed as Homo sapiens) [compound 13] | “++++” (≥75% = ++++) | ++++ (>=75% = ++++)
45 | 80 (LLYEGKLTL; listed as Homo sapiens) [compound 80] | “++++” (≥75% = ++++) | –
46 | 92 (RLPPDTLLQQV; listed as Homo sapiens) [compound 92] | “+++” (≥50 = +++) | –
47 | 49 (FLYPEKDEPT; listed as Homo sapiens) [compound 49] | “++” (≥20% = ++) | –
48 | 82 (NVFDGLVRV; listed as Homo sapiens) [compound 82] | “+++” (≥50 = +++) | –
49 | 120 (YLGEEYVKA; listed as Homo sapiens) [compound 120] | “++” (≥20% = ++) | –
50 | 29 (YIQDEINTI; listed as Homo sapiens) [compound 29] | “+++” (≥50 = +++) | –
51 | 47 (FLDTPIAKV; listed as Homo sapiens) [compound 47] | “++” (≥20% = ++) | –
52 | 68 (KLLAATVLLL; listed as Homo sapiens) [compound 68] | “++” (≥20% = ++) | –
53 | 72 (KLSEAVTSV; listed as Homo sapiens) [compound 72] | “+++” (≥50 = +++) | –
